Experimental data as given in US20240287194A1, “Targeting Extracellular Matrix Proteins to Regulate NK Cell Function in Peripheral Tissues” (The General Hospital Corporation, priority 2021, published 2024).

B1: collagen III: collagen III (Human placenta, Sigma), dermal ECM protein (protein, UniProt P02461 154-1221, looked up)
Collagen alpha-1(III) chain: QYDSYDVKSGVAVGGLAGYPGPAGPPGPPGPPGTSGHPGSPGSPGYQGPPGEPGQAGPSGPPGPPGAIGPSGPAGKDGESGRPGRPGERGLPGPPGIKGPAGIPGFPGMKGHRGFDGRNGEKGETGAPGLKGENGLPGENGAPGPMGPRGAPGERGRPGLPGAAGARGNDGARGSDGQPGPPGPPGTAGFPGSPGAKGEVGPAGSPGSNGAPGQRGEPGPQGHAGAQGPPGPPGINGSPGGKGEMGPAGIPGAPGLMGARGPPGPAGANGAPGLRGGAGEPGKNGAKGEPGPRGERGEAGIPGVPGAKGEDGKDGSPGEPGANGLPGAAGERGAPGFRGPAGPNGIPGEKGPAGERGAPGPAGPRGAAGEPGRDGVPGGPGMRGMPGSPGGPGSDGKPGPPGSQGESGRPGPPGPSGPRGQPGVMGFPGPKGNDGAPGKNGERGGPGGPGPQGPPGKNGETGPQGPPGPTGPGGDKGDTGPPGPQGLQGLPGTGGPPGENGKPGEPGPKGDAGAPGAPGGKGDAGAPGERGPPGLAGAPGLRGGAGPPGPEGGKGAAGPPGPPGAAGTPGLQGMPGERGGLGSPGPKGDKGEPGGPGADGVPGKDGPRGPTGPIGPPGPAGQPGDKGEGGAPGLPGIAGPRGSPGERGETGPPGPAGFPGAPGQNGEPGGKGERGAPGEKGEGGPPGVAGPPGGSGPAGPPGPQGVKGERGSPGGPGAAGFPGARGLPGPPGSNGNPGPPGPSGSPGKDGPPGPAGNTGAPGSPGVSGPKGDAGQPGEKGSPGAQGPPGAPGPLGIAGITGARGLAGPPGMPGPRGSPGPQGVKGESGKPGANGLSGERGPPGPQGLPGLAGTAGEPGRDGNPGSDGLPGRDGSPGGKGDRGENGSPGAPGAPGHPGPPGPVGPAGKSGDRGESGPAGPAGAPGPAGSRGAPGPQGPRGDKGETGERGAAGIKGHRGFPGNPGAPGSPGPAGQQGAIGSPGPAGPRGPVGPSGPPGKDGTSGHPGPIGPPGPRGNRGERGSEGSPGHPGQPGPPGPPGAPGPCCGGVGAAAIAGIGGEKAGGFAPYYG

How the values were obtained:
Assay type in all cases: cell-based, mice
splenic cNK cells [1] = assay: Phospho-signaling in splenic cNK cells stimulated with H2O2 in the presence of ECM proteins; conditions: baseline and 2- and 5-minute exposure to H2O2
Method: (§1) Single-cell suspensions from all samples were prepared by straining through a 70 μm filter. 2.4G2 supernatant treated cells were stained in 1×PBS/2% FCS/5 mM EDTA with the appropriate surface antibodies (Table 2) for 30 minutes at 4° C., washed and analyzed by flow cytometry. For intracellular staining, cells were fixed and permeabilized using True-Nuclear Transcription Buffer set (Biolegend, catalog no. 424401) according to the manufacturer's protocol then incubated with appropriate antibodies (Table 2) for 60 min at RT, washed and analyzed by flow cytometry. For in vitro signaling experiments, following the specified time points, cells were fixed with an equal volume of pre-warmed 1×aldehyde based fixation buffer (Biolegend, catalog no. 420801) for 20 min at RT. Fixed cells were permeabilized by drop-wise addition of chilled methanol-based solution True-Phos Perm Buffer (Biolegend, catalog no. 425401) while mixed on a vortex. Cells were stored in-20° C. and dark for 1-3 days before washing them two times with ˜3 mL of 1×PBS/2% FCS/5 mM EDTA. Cells were subsequently stained with appropriate antibodies against surface markers and specific phosphorylated signaling proteins (Table 2) for 60 min at RT, washed and analyzed by flow cytometry. Cells were assayed on a BD LSRFortessa X-20 flow cytometer (BD Bioscience, Billerica, MA, USA) and data were analyzed using FlowJo software Version 10 (Tree Star, Ashlad, OR, USA). NK cells in WT non-reporting mice were identified as CD3^− NK1.1^+NKp46^+.
(§2) For in vitro experiments in the presence of ECM components, Collagen I (Rat tail, Sigma, catalog no. 08-115), collagen III (Human placenta, Sigma, catalog no. C4407), collagen IV (Mouse, Sigma, catalog no. C0543), Elastin (Mouse lung, Sigma, catalog no. E6402), Laminin (Mouse, Thermo Fisher, catalog no. 23017015) and Fibronectin (Rat plasma, Sigma, catalog no. F0635) were diluted in 1×PBS and coated at 20 μ ENREF 45 g/cm^2 in a 24 well tissue culture plate for 30 minutes at RT with gentle shaking followed by overnight at 4° C. Spleens from Ncr1^iCre, ROSA^mT-mG, WT or Lair1^−/− mice were harvested as described above. Then, 5×10^6 splenocytes resuspended in RPMI 10% FBS/1% P/S/20 mM Glutamine were mixed with 20 μg of respective ECM protein per well and were incubated at RT for 10 minutes. Splenocytes and ECM mix were plated onto the ECM-coated well and were incubated at 37° C./5% CO2 for 2 hours (short ECM exposure) or 17 hours (long ECM exposure). At the end of the incubation, 1×10^5 MEF (WT or m157) cells were added to each well to obtain a 50:1 splenocyte:MEF ratio. For cell signaling experiments, hydrogen peroxide (H2O2) at a final concentration of 2.5 mM or 1×10^5 MEF-m157 cells were added to each well except in “0 min” wells which were unstimulated and fixed immediately. Splenocytes were stimulated with 2.5 mM H2O2 for 2 min and 5 min or were co-cultured with MEF-m157 for 30 min and 60 min (signaling) or 7 hours (CD107a and IFN[…]) at 37° C./5% CO2. Splenocytes and MEF in co-culture were supplemented with mIL-12 (10 ng/mL, Biolegend, catalog no. 577002), mIL-15 (1 ng/mL, Shenandoah Biotechnology, catalog no. 200-07) and hIL-2 (Biolegend, catalog no. 589104; only long ECM exposure) as well as for CD107a/IFN experiments. 1 μL of anti-CD107a-BV421 (1D4B, Biolegend, catalog no. 121618), 1×Brefeldin A (Biolegend, catalog no. 420601) and 1×Monensin (Biolegend, catalog no. 420701) were added. Following the co-culture, cells were washed with 1×PBS/2% FCS/5 mM EDTA and the pellet was resuspended in 2.4G2 blocking solution before flow cytometry staining.

[2] = system: Ly49H^+ splenic cNK cells; assay: Splenic cNK cell co-culture with m157-MEF in the presence of ECM proteins (CD107a, IFNγ flow cytometry); conditions: for Ly49H+ cNK cell degranulation (CD107a): 9 and 24 hours co-culture with m157-MEF, ECM coated 20 μg/cm2
Method: as §1, §2

splenic cNK cells [3] = assay: LEGENDplex chemokine release by splenic NK cells co-cultured with m157-MEF on ECM proteins; conditions: for CCL5 release by splenic cNK cells / CXCL10 release by splenic cNK cells: 12 hours
Method: NK cells purified from spleens under sterile conditions were used for LEGENDplex experiments. Spleens from 8-9-week-old C57BL/6 female WT mice were harvested and mashed through a 70 μm filter. Cells were resuspended in RBC lysis for two minutes and washed with 1×PBS/2% FCS/5 mM EDTA. NK cells were enriched by negative selection using an NK cell isolation kit (Milteny Biotec, catalog no. 130-115-818) and magnetic LS columns (Milteny Biotec, catalog no. 130-042-401) according to the manufacturer's instructions. Enrichment of isolated NK cells was confirmed by flow cytometry and was 88-90% CD3^−NK1.1^+NKp46^+ cells. Enriched NK cells were resuspended in RPMI 1640 media supplemented with 10% FBS and 1% P/S.
ECM protein coating on wells was performed as previously described. 1×10^5 enriched splenic NK cells was mixed with 20 μg of respective ECM protein per well in RPMI 1640/10% FBS/1% P/S/20 mM Glutamine and incubated at RT for 10 minutes. NK cells and ECM mix were plated onto the ECM-coated well and were incubated at 37° C./5% CO2 for 2 hours. At the end of the incubation, 1×10^5 MEF (WT or m157) cells were added to the respective wells to obtain a 1:1 NK:MEF ratio. NK cells and MEF were co-cultured at 37° C. 5% CO2 for 24 hours supplemented with mIL-12 (10 ng/mL, Biolegend, catalog no. 577002) and mIL-15 (1 ng/ml, Shenandoah Biotechnology, catalog no. 200-07-100 μg). The supernatant was collected at 12- and 24-hour intervals, centrifuged to remove cells/cell debris and subsequently frozen at −80° C. until further use. Quantification of murine cytokines and chemokines (CCL2, CCL5, CXCL9, CXCL10) in supernatants was performed with LEGENDplex kits (Biolegend, catalog nos. 740451, 740622) according to manufacturer's instructions. In brief, a mix of capture beads with distinct size and fluorescence was incubated with undiluted S/N or standard dilutions for 2 hours at RT with constant shaking. Beads were washed, a biotinylated detection antibody was added and the plate was incubated for 1 hour at RT with constant shaking. The streptavidin-PE conjugate was added and further incubated for 30 minutes at RT on a shaker. Beads were washed and subsequently acquired on a BD LSRFortessa X-20 flow cytometer. Analysis and quantification of the results were done using LEGENDplex data analysis software (BioLegend). Quantification was reported as pg/ml for CCL2, CCL5, CXCL10 and as MFI for CXCL9.

splenic cNK cells [4] = assay: Phospho-signaling in splenic cNK cells co-cultured with m157-MEF in the presence of ECM proteins
Method: as §1, with “Cells were stored in-20° C. and dark for 1-3 days before washing them two times with ˜3 mL of 1×PBS/2% FCS/5 mM EDTA.” left out, “NK cells in WT non-reporting mice were identified as CD3^− NK1.1^+NKp46^+.” left out

Row | Molecule | pNFκB in NK cells (splenic cNK cells [1]) | pSTAT3 in NK cells (splenic cNK cells [1]) | Ly49H+ cNK cell degranulation (CD107a) [2] | IFNγ production by Ly49H+ cNK cells ([2]; exposed to m157-MEF, 9 and 24 hours) | CCL5 release by splenic cNK cells (splenic cNK cells [3]) | CXCL10 release by splenic cNK cells (splenic cNK cells [3]) | CCL2 release by splenic cNK cells (splenic cNK cells [3]; 24 hours) | phospho-NFκB (p65) in splenic cNK cells (splenic cNK cells [4]; after 30- and 60-minutes exposure to m157-MEF) | phospho-NFκB (p65) in splenic cNK cells (splenic cNK cells [4]; at baseline) | CXCL9 release by cNK cells (splenic cNK cells [3]; 24 hours)
1 | collagen I: Collagen I (Rat tail, Sigma), dermal ECM protein | suppressive effect | suppressive effect | potently blocked | suppressed | suppressed | significantly induced | significantly induced |  |  | 
2 | B1 | increased |  | potently blocked |  | suppressed | significantly induced | significantly induced | highly amplified | significantly induced | induced
